System: engraftment of donor Sca-1+ HPCs (donor Ly5.2 cells among recipient PBMCs)
Test: Cytokine pre-conditioning effect on short term engraftment of donor Sca-1+ HPCs after 200 cGy radiation
Type: in vivo, C57BL/6-Ly-5.1-Pep3b mice
Conditions: mice
Experimental: FIG. 1 is a bar graph showing the cytokine hematopoietic growth factor pretreatment conditioning effect on engraftment of HPCs following 200 cGy radiation in mice, one month after transplantation. Recipient C57BL/6J-Ly-5.1-Pep^3b mice received b.i.d. sc injections of PBS (□) 0.1% BSA, 4 μg rhGCSF (□) in 0.1% BSA, or 4 μg rhGCSF plus 1.0 μg rmSCF(▪) in 0.1% BSA (R&D Systems, Minneapolis, Minn.) for four days. On the fifth day, mice received a single sc injection followed one hour later by a 200 cGy radiation dose. Four hours after irradiation, all mice received 0.5×10^6 Sca-1+BM cells via tail vein injection. Mice were bled 1 month after BMT and PB was analyzed for engraftment. […] The data represent three experiments in series with 2 mice per condition in each experiment. All animals survived this procedure.
The data which forms the basis of the present invention concerns the enhanced in vivo transfer of purified SCA-1+bone marrow derived HPCs using congenic C57BL/6 mice, which differ only at the Ly5 locus. The origin of a cell is detectable by immunoreactivity with either anti-Ly5.1 or anti-Ly5.2 antibodies by FACS of PBMCs. […] Using this system, the effects of pre-transplantation cytokine conditioning on short term engraftment, defined as the percentage of total PBMCs in the recipient that were donor Ly5.2 cells, measured one month after transplantation, have been determined. […]

B1: rhGCSF: recombinant human granulocyte colony stimulating factor (R&D Systems), 4 μg in 0.1% BSA (protein, UniProt P09919 31-207, looked up)
Granulocyte …: TPLGPASSLPQSFLLKCLEQVRKIQGDGAALQEKLVSECATYKLCHPEELVLLGHSLGIPWAPLSSCPSQALQLAGCLSQLHSGLFLYQGLLQALEGISPELGPTLDTLQLDVADFATTIWQQMEELGMAPALQPTQGAMPAFASAFQRRAGGVLVASHLQSFLEVSYRVLRHLAQP
engraftment (percentage of total PBMCs in the recipient that were donor Ly5.2 cells) (b.i.d. sc for four days plus final injection on day 5, 0.5×10^6 Sca-1+ cells iv, measured one month after transplantation): 18.9%
fold increase in engraftment compared with control (one month after transplantation, versus vehicle control (0.1% BSA), p<0.01): at least a three fold increase
